Laboratory results published in paper PMC9464890, “Exosite binding modulates the specificity of the immunomodulatory enzyme ScpA, a C5a inactivating bacterial protease” (Computational and Structural Biotechnology Journal, 2022).

Legend:
rhC5a_(R40A) (human) = assay: SPR; as a1 (NTA chip, immobilised His-tagged C5a form, D783A_(S512A) flowed, 25 °C, Hepes buffer), but KD from fitting of the response units at equilibrium because of very fast dissociation; triplicate
rhC5a_(R37A) (human) = assay: as above
R46A_(core) (human) = assay: as above
rhC5a_(R46A) (human) = assay: as above
R40A_(core) (human) = assay: as above
R37A_(core) (human) = assay: as above
rhC5a_(core) (human) = assay: SPR; BIAcore X100, NTA sensor chip with about 20-25 RU of immobilised His-tagged C5a form (ligand), ScpA form flowed as ligate at 30 uL/min, 25 °C, 10 mM Hepes-KOH pH 7.4, 150 mM NaCl, 0.005% Tween 20, 50 uM EDTA; global fit, 1:1 Langmuir model with drifting baseline; triplicate

B1: ScpA_(S512A,D783A) (enzyme)
chain: ANTVTEDTPVTEQAVETPQPTAVSEEVPSSKETKTPQTPDDAEETIADDANDLAPQAPAKTADTPATSKATIRDLNDPSQVKTLQEKAGKGAGTVVAVIDAGFDKNHEAWRLTDKTKARYQSKEDLEKAKKEHGITYGEWVNDKVAYYHDYSKDGKTAVDQEHGTHVSGILSGNAPSETKEPYRLEGAMPEAQLLLMRVEIVNGLADYARNYAQAIRDAVNLGAKVINMSFGNAALAYANLPDETKKAFDYAKSKGVSIVTSAGNDSSFGGKTRLPLADHPDYGVVGTPAAADSTLTVASYSPDKQLTETAMVKTDDQQDKEMPVLSTNRFEPNKAYDYAYANRGMKEDDFKDVKGKIALIERGDIDFKDKVANAKKAGAVGVLIYDNQDKGFPIELPNVDQMPAAFISRKDGLLLKDNPQKTITFNATPKVLPTASGTKLSRFSSWGLTADGNIKPDIAAPGQDILSSVANNKYAKLSGTAMSAPLVAGIMGLLQKQYETQYPDMTPSERLDLAKKVLMSSATALYDEDEKAYFSPRQQGAGAVDAKKASAATMYVTDKDNTSSKVHLNNVSDKFEVTVTVHNKSDKPQELYYQATVQTDKVDGKHFALAPKVLYEASWQKITIPANSSKQVTVPIDASRFSKDLLAQMKNGYFLEGFVRFKQDPTKEELMSIPYIGFRGDFGNLSAVEKPIYDSKDGSSYYHEANSDAKDQLDGDGLQFYALKNNFTALTTESNPWTIIKAVKEGVENIEAIESSEITETIFAGTFAKQDDDSHYYIHRHANGEPYAAISPNGDGNRDYVQFQGTFLRNAKNLVAEVLDKEGNVVWTSEVTEQVVKNYNNDLASTLGSTRFEKTRWDGKDKDGKVVANGTYTYRVRYTPISSGAKEQHTDFDVIVDNTTPEVATSATFSTEDRRLTLASKPKTSQPVYRERIAYTYMDEDLPTTEYISPNEDGTFTLPEEAETMEGATVPLKMSDFTYVVEDMAGNITYTPVTKLLEGHS
- Kd (rhC5a_(R40A) (human)): 1500 nM
- Kd (rhC5a_(R37A) (human)): 2000 nM
- Kd (R46A_(core) (human)): 4330 nM
- Kd (rhC5a_(R46A) (human)): 669 nM
- Kd (R40A_(core) (human)): > 15000 nM
- Kd (R37A_(core) (human)): > 10000 nM
- Kd (rhC5a_(core) (human)): 1970 nM
- koff (rhC5a_(core) (human)): 0.0216 s⁻¹
- kon (rhC5a_(core) (human)): 11000 M⁻¹ s⁻¹
